According to US6914129 (dated 2005):
Residue numbers refer to the chain shown, from its start. Values belong to the binder of their own block, whether it stands above or below them.

Legend:
[1] = molecular target: T1, FceRII (CD23, FCEL) (human, UniProt P06734); assay: FACS
T1 chain: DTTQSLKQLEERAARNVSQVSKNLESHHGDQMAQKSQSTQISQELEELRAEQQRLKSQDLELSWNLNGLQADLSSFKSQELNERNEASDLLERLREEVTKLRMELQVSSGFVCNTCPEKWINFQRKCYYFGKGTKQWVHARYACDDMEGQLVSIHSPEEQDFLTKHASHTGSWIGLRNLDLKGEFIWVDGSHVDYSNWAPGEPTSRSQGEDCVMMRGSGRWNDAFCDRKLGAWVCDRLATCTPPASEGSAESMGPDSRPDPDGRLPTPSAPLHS

[2] = molecular target: T2, FceRI alpha (FCEH) (human, UniProt P12319); assay: FACS
T2 chain: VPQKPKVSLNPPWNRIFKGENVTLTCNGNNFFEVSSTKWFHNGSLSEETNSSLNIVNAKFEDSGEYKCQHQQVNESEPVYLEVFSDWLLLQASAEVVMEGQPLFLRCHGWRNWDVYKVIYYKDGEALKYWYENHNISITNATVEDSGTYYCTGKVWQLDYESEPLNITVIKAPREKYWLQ

B1: IgE mutant 3 (protein)
chain: ASTQSPSVFPLTRCCKNIPSNATSVTLGCLATGYFPEPVMVTWDTGSLNGTTMTLPATTLTLSGHYATISLLTVSGAWAKQMFTCRVAHTPSSTDWVDNKTFSVCSRDFTPPTVKILQSSCDGGGHFPPTIQLLCLVSGYTPGTINITWLEDGQVMDVDLSTASTTQEGELASTQSELTLSQKHWLSDRTYTCQVTYQGHTFEDSTKKCADSNPRGVSAYLSRPSPFDLFIRKSPTITCLVVDLAPSKGTVNLTWSRASGKPVNHSTRKEEKQRNGTLTVTSTLPVGTRDWIEGETYQCRVTHPHLPRALMRSTTKTSGPRAAPEVYAFATPEWPGSRDKRTLACLIQNFMPEDISVQWLHNEVQLPDARHSTTQPRKTKGSGFFVFSRLEVTRAEWEQKDEFICRAVHEAASPSQTVQRAVSVNPGLAGGSAQSQRAPDRVLCHSGQQQGLPRAAGGSVPHPRCHCGAGRADWPGPPELDVCVEEAEGEAPWTWTGLC
binding result [1]: no binding

B2: IgE mutant 4 (protein)
chain: B1 chain with G287L, T288H, R289Q, I292L, E293D, E295K, T296E
binding result [1]: no binding
binding result [2]: no binding

B3: IgE mutant 1 (protein)
chain: B1 chain
binding result [1]: no binding
binding result [2]: no binding

Other lines, results leading:

binding result [1]: no binding
B4: IgE mutant 50 (protein)
chain: B1 chain

binding result [1]: no binding
B5: IgE mutant 62 (protein)
chain: B1 chain with K183A
